In PMC2724277:

Target: NusA-SKK (Escherichia coli, UniProt P0AFF6 132-348)
Assay: fluorescence anisotropy

Sequence of NusA-SKK (P0AFF6 132-348): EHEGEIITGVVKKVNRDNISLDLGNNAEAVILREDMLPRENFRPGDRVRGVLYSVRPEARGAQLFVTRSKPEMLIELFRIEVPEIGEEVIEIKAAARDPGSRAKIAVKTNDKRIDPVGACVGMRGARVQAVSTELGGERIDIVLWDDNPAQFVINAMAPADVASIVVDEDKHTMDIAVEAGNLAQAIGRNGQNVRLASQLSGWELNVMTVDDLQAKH

Binder | binding result | Kd [µM]
AGCCCUGAAAAAGGGC (structured_RNA) [nutR boxB] | no binding | 
CACAUUCCA (ssRNA) [nutR spacer] |  | 137 ± 17
CACUGCUCUUUAACAAUUUA (ssRNA) [rrn cac-boxA-spacer] |  | 14 ± 0.2
CGCUCUUAAAAAUUAA (ssRNA) [nutL boxA-spacer] |  | 71 ± 4
CGCUCUUAAAAAGGAA (ssRNA) [nutL boxA-spacer (mut)] | no binding | 
CUCUCUUACACAUUCCA (ssRNA) [nutR boxA5-spacer] |  | 124 ± 7
CGCUAUUACACAUUCCA (ssRNA) [nutR boxA16-spacer] |  | 106 ± 4
CGCUCUUACACAUUCCA (ssRNA) [nutR boxA-spacer] |  | 126 ± 4
AAAAUUAA (ssRNA) [nutL spacer] |  | 24 ± 2.2
ACAAUUUA (ssRNA) [rrn spacer (III)] |  | 71 ± 3.3
CGCUCUUA (ssRNA) [nutR boxA (same sequence as nutL boxA)] | no binding | 
